Source: patent publication US11857601B2, “Pharmaceutical composition for cancer treatment comprising fusion protein including IL-2 protein and CD80 protein and anticancer drug” (GI INNOVATION, INC., priority 2020, dated 2024)

B1: GI102-M61: hCD80-Fc-IL-2 variant (3M) (R38A, F42A, E61R); SEQ ID NO: 28 (protein)
chain: VIHVTKEVKEVATLSCGHNVSVEELAQTRIYWQKEKKMVLTMMSGDMNIWPEYKNRTIFDITNNLSIVILALRPSDEGTYECVVLKYEKDAFKREHLAEVTLSVKADFPTPSISDFEIPTSNIRRIICSTSGGFPEPHLSWLENGEELNAINTTVSQDPETELYAVSSKLDFNMTTNHSFMCLIKYGHLRVNQTFNWNTTKQEHFPDNGSGGGGSGGGGSGGGGSAESKYGPPCPPCPAPEAAGGPSVFLFPPKPKDQLMISRTPEVTCVVVDVSQEDPEVQFNWYVDGVEVHNAKTKPREEQFNSTYRVVSVLTVLHQDWLNGKEYKCKVSNKGLPSSIEKTISKAKGQPREPQVYTLPPSQEEMTKNQVSLTCLVKGFYPSDIAVEWESNGQPENNYKTTPPVLDSDGSFFLYSRLTVDKSRWQEGNVFSCSVLHEALHNHYTQKSLSLSLGGGGGSAPTSSSTKKTQLQLEHLLLDLQMILNGINNYKNPKLTAMLTAKFYMPKKATELKHLQCLERELKPLEEVLNLAQSKNFHLRPRDLISNINVIVLELKGSETTFMCEYADETATIVEFLNRWITFCQSIISTLT
modifications: Sequence of fusion protein (GI102-M61)
B2: mGI102-M61: mCD80-Fc-IL-2 variant (3M) (R38A, F42A, E61R); SEQ ID NO: 34 (protein)
chain: MDAMLRGLCCVLLLCGAVFVSPSHAVDEQLSKSVKDKVLLPCRYNSPHEDESEDRIYWQKHDKVVLSVIAGKLKVWPEYKNRTLYDNTTYSLIILGLVLSDRGTYSCVVQKKERGTYEVKHLALVKLSIKADFSTPNITESGNPSADTKRITCFASGGFPKPRFSWLENGRELPGINTTISQDPESELYTISSQLDFNTTRNHTIKCLIKYGDAHVSEDFTWEKPPEDPPDSGSGGGGSGGGGSGGGGSAESKYGPPCPPCPAPEAAGGPSVFLFPPKPKDQLMISRTPEVTCVVVDVSQEDPEVQFNWYVDGVEVHNAKTKPREEQFNSTYRVVSVLTVLHQDWLNGKEYKCKVSNKGLPSSIEKTISKAKGQPREPQVYTLPPSQEEMTKNQVSLTCLVKGFYPSDIAVEWESNGQPENNYKTTPPVLDSDGSFFLYSRLTVDKSRWQEGNVFSCSVLHEALHNHYTQKSLSLSLGGGGGSAPTSSSTKKTQLQLEHLLLDLQMILNGINNYKNPKLTAMLTAKFYMPKKATELKHLQCLERELKPLEEVLNLAQSKNFHLRPRDLISNINVIVLELKGSETTFMCEYADETATIVEFLNRWITFCQSIISTLT
modifications: Sequence of fusion protein (mGI102-M61)
B3: GI101C1: comparative fusion protein: human CD80 fragment, Ig hinge, Fc domain; SEQ ID NO: 17 (protein)
chain: VIHVTKEVKEVATLSCGHNVSVEELAQTRIYWQKEKKMVLTMMSGDMNIWPEYKNRTIFDITNNLSIVILALRPSDEGTYECVVLKYEKDAFKREHLAEVTLSVKADFPTPSISDFEIPTSNIRRIICSTSGGFPEPHLSWLENGEELNAINTTVSQDPETELYAVSSKLDFNMTTNHSFMCLIKYGHLRVNQTFNWNTTKQEHFPDNGSGGGGSGGGGSGGGGSAESKYGPPCPPCPAPEAAGGPSVFLFPPKPKDQLMISRTPEVTCVVVDVSQEDPEVQFNWYVDGVEVHNAKTKPREEQFNSTYRVVSVLTVLHQDWLNGKEYKCKVSNKGLPSSIEKTISKAKGQPREPQVYTLPPSQEEMTKNQVSLTCLVKGFYPSDIAVEWESNGQPENNYKTTPPVLDSDGSFFLYSRLTVDKSRWQEGNVFSCSVLHEALHNHYTQKSLSLSLG
modifications: Sequence of fusion protein (GI101C1)

What was measured:
[1] = test system: CD8+ T cells and CD4+/FoxP3+ Treg cells; assay: Proliferation of CD8+ T cells and Treg cells in PBMCs (Exp. Ex. 10); type: cell-based, human; settings: for proliferation of CD4+/FoxP3+ Treg cells: compared with no stimulus and anti-CD3 antibody alone
Method: Human PBMCs were purchased from Allcells (Lot #3014928, USA). […] CellTrace CFSE dye was used, which was reacted with the human PBMCs under a light-blocking condition at […] for 20 minutes. The cells were labeled with CFSE by being reacted with 1 μM CellTrace CFSE dye at 37° C. for 20 minutes. CFSE not bound to the cells was removed by being reacted for 5 minutes with a culture medium having a 5-fold volume of the staining reaction solution and then by being centrifuged at 1,300 rpm for 5 minutes. The CFSE-labeled PBMCs were resuspended in the culture medium (RPMI1640 medium containing 10% fetal bovine serum, 10 mM HEPES, 100 U/ml penicillin/streptomycin, 1 mM sodium pyruvate, 55 μM 2-mercaptoethanol, 1 mM non-essential amino acid, and 2 mM L-glutamine), and then added to a 96-well microplate at 1×10^5 cells per well.
The incubated cells were examined for their degree of proliferation by measuring, with FACS analysis using anti-human CD4-PE antibody (BioLegend, USA), anti-human CD8-PE/Cy7 antibody (BioLegend, USA), and anti-human FoxP3-APC antibody (BioLegend, USA), a proportion of CD8+ T cells that had not been labeled with CFSE.

[2] = test system: CT26 cancer cell line; assay: mGI102-M61 in mice transplanted with CT26 (Exp. Ex. 18); type: in vivo, BALB/c mice; settings: 12 mg/kg i.v.
Method: The tumor size was measured daily.

[3] = test system: effector CD8+ T cells, NK cells, Treg cells; assay: Effect on mouse immune cells in spleen; type: in vivo, C57BL/6 mice; settings: vs PBS
Method: On days 1, 3, 5, 7, and 14 after the injection, the spleen tissues were removed from the mice of each group. Thereafter, for the spleen tissue, the numbers of effector CD8+ T cells, NK cells, and Treg cells were calculated with FACS analysis using respective antibodies, and proportions of effector CD8+ T cells and NK cells with respect to Treg cells were respectively calculated. The information on the antibodies used in each cell analysis is as follows:
Effector CD8+ T cell: PB anti-mouse CD3ε antibody (Biolegend, #155612; KT3.1.1), FITC anti-mouse CD8α antibody (BD, #553031, 53-6.7), PE/Cy7 anti-mouse CD44 antibody (Biolegend, #103030; IM7), APC anti-mouse CD122 antibody (Biolegend, #123214; TM-β1)
NK cell: PB anti-mouse CD3ε antibody (Biolegend, #155612; KT3.1.1), PE anti-mouse NK-1.1 (Biolegend, #108708; PK136)
Treg cell: FITC anti-mouse CD3 antibody (Biolegend, #100204; 17A2), PB anti-mouse CD4 antibody (Biolegend, #100531; RM4-5), PE anti-mouse CD25 antibody (Biolegend, #102008; PC61), APC anti-mouse Foxp3 antibody (Invitrogen, #FJK-16s, 17-5773-82).

Molecule	proportion of CD8+ T cells ([1]; anti-CD3ε 1 μg/ml, 7 days, compared with no stimulus, anti-CD3 antibody alone and GI101C1)	proliferation of CD4+/FoxP3+ Treg cells [1]	survival rate ([2]; vs negative control)	Tumor growth inhibition ([2]; vs negative control (hIgG4))	proportions of activated CD8+ T cells/Treg cells and NK cells/Treg cells ([3]; 3rd to 7th days after administration)	numbers of CD8+ T cells and NK cells ([3]; 3rd to 14th days after i.v. administration (3, 6 or 12 mg/kg))
B1	significant increase	did not exhibit a significant increase	–	–	–	–
B2	–	–	significant improvement	significant tumor growth inhibition	significant increase	significant increase
B3	–	did not exhibit a significant increase	–	–	–	–
